Target: T1, human FIGNL1ΔN (fidgetin-like 1 in which the N-terminal 284 aa were deleted) (human, UniProt Q6PIW4 285-674)
T1 sequence: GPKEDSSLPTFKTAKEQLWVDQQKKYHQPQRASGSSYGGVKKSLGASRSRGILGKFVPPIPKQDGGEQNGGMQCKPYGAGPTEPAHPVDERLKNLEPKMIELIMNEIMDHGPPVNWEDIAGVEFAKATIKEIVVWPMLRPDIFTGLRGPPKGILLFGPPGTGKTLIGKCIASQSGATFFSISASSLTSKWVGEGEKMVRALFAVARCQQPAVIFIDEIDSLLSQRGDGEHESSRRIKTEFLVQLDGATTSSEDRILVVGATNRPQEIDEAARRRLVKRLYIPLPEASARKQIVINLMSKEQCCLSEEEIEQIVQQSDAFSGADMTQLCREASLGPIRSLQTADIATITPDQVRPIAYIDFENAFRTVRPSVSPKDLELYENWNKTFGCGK
Test: native gel or EMSA

B1: human RAD51 (natural protein)
chain: MAMQMQLEANADTSVEEESFGPQPISRLEQCGINANDVKKLEEAGFHTVEAVAYAPKKELINIKGISEAKADKILAEAAKLVPMGFTTATEFHQRRSEIIQITTGSKELDKLLQGGIETGSITEMFGEFRTGKTQICHTLAVTCQLPIDRGGGEGKAMYIDTEGTFRPERLLAVAERYGLSGSDVLDNVAYARAFNTDHQTQLLYQASAMMVESRYALLIVDSATALYRTDYSGRGELSARQMHLARFLRMLLRLADEFGVAVVITNQVVAQVDGAAMFAADPKKPIGGNIIAHASTTRLYLRKGRGETRICKIYDSPCLPEAEAMFAINADGVGDAKD
  binding result: binds

B2: human DMC1 (natural protein)
chain: MKEDQVVAEEPGFQDEEESLFQDIDLLQKHGINVADIKKLKSVGICTIKGIQMTTRRALCNVKGLSEAKVDKIKEAANKLIEPGFLTAFEYSEKRKMVFHITTGSQEFDKLLGGGIESMAITEAFGEFRTGKTQLSHTLCVTAQLPGAGGYPGGKIIFIDTENTFRPDRLRDIADRFNVDHDAVLDNVLYARAYTSEHQMELLDYVAAKFHEEAGIFKLLIIDSIMALFRVDFSGRGELAERQQKLAQMLSRLQKISEEYNVAVFVTNQMTADPGATMTFQADPKKPIGGHILAHASTTRISLRKGRGELRIAKIYDSPEMPENEATFAITAGGIGDAKE
  binding result: binds
